Measurements as given in the DeepSol protein solubility set.

Assay: soluble on expression in E. coli; label from the status in PepcDB or PDB records

Row | Sequence | soluble on expression in E. coli
1 | MMVPPRPGFAPLSLESINDRMEMHLFLTSACILYHIYIRDNLLIYQEIWTKYWRGRLAESALKNEISALYLRLPFPRPPTLQSIAEQEVICKDAAPIYVYCSREAMLSHVQSKDLCQFGRANLLACTLAPYRTGVTIEMVRCLFKRLRDGNRVEAGTGEEDLSHFVAFLPTTAFRRGPRFYLGGENVQFFLREGGLELPCHIIAFGRALFSEILADGSSWDWKSVGESSRLNHVRASVELSRNVPTAETTDNWAEAALGTDAVYPVRPPNLTPTQDHPCKPLLSGNRVPNERHRPWKRFFKKLRSVSKHFYFNRLEHHHHHH | soluble
2 | MTLNSLPLLRMGTVPLASRISTPLSLRLVSLSLERIRCAGTLRAPFPLPLYFSPGEQPLLHMALPLAARQHFLEHGYAIVPNVLSSSVVERIRSAALASTTARFRSFAHLPNVHSLLKSTPKCTDPLQDGLMSHLQKRRYILRYYRDMRRHKRRLRRAAKAFLNGRDVSELGREDMLRLSEMVCAEAQKVWSRGCTSTVKTDLQMLTAINQYRANAWMTNAQLEAVLRDNEEFVKPLSQLAEVVGGVARPVIFGDVPLLREAYGNPVGYHCLAPTIGTRTNARVSKGGGEATAVSMVLFTYTPTPLCLPPFVLRNSQHAVRRQYLHSVHAERLWRPFAPMEADIRDQLRRFQFDASVVGQPLLAAMAGPSSTPAAPVIGPGTVMVVDPHLMMAFGGNMTPQSEVLYRINVVAENARPHLMAPSWIRGWRTMPEEVHFASPVVFPPLYVE | not soluble
3 | MSLKGAQILVVEDELIVGMMIKLKLAKMGYCVSCMASTGADAVAMVEKVRPELVLMDIRLKGSLDGVEAAMMIRKISNIPIVFITADSSLETRERAELACPQGFLLKPFMDEELGSLVRSVFSNSMGGASAVNANEGHHHHHH | not soluble
4 | MSLYGGIPTNLVSGMSSAGAICTTQIRDAREREKREIGLLNDRLADYIEKVRFLKAQNHVLSHDIEILRRGFSGGGHISSFFESEISNCTVISERILSSRTKFQADITGLEGEIEIYRKKWLEALKVVRSHREDHHVNLDKLAEVEAQIALFNRKIRIVEEDVLRIRRETGGIQNDIGRIHSQIHAEIALKNERHHSVQMLLQRVQVIQTENSSRIEQELIYIHRDTTLENRDYFRQELQAAMRDIRANYEAMSIRSREDIEIAYRKRIDEIRVIPAHVHIEDYREELLSIRTTLSTTHSRLAEIESRNAWLLTTITDLKHQQAEEARIFEATLDAKQATYEQFKERCTELSIQMEKLCDHETSLQAELERYRVLLNGANVTTYVSNSTGAAGYRSSTHVATTTTTTTNGYSSGYTAGGYTSGGYTTGGYTRGITAGGAVGGISTGGYIGRSSSSHGISVGGNIGGVSVGGHINGYHASGDISAAGRHHESSYSYSSSNN | not soluble
5 | MAHHHHHHMGKLSKDRRDIYYRKAKESGYRARSSFKLIQINEKFGILKLFKPDIYNCNNEKDLINIYNEHYCYNIVDLCAAPGSWSQVLKNICLYNYYQILYMINKYNNNENIKNIQHEEFLNKFSLYINYNEELENKIKNLKIKCSNIKEPNIVAVDLQEIGNMNYVKIIQGDITKMSTIDKILKCMNNKINSDEENVNVFYNMEQQKKENNFSYAHTVVSDGAPDITGMNDIDEFIQSQLILSSLKVCCSVLKVGGNFISKIFRGEHTGLLILHLNKFFQRVYICKPQSSRNKSLESFLVCLNFSLPRSNIISMNNHNAENKINDKYLSEEQMRKFHAQLITYKDKDDQESEEKKENYNSHDNIDYNLCHTTKHNKNISDEIETKEVSSPYEHNNIVENNVTPNSDMLKNINKIINEYDNDKNNLDIFNFYCSDSDEEIKYFNSEDEEVVNNYISSESFMSNKLFSFIATDNYYDSDKSYLLPENYVRHEPQLMPLKPPYMLSLQKKRQEVKK | not soluble
6 | SAAANPWDPASAPNGAGLVLGHFIASGMVNQEMLNMSKKTVSCFVNFTRLQQITNIQAEIYQKNLEIELLKLEKDTADVVHPFFLAQKCHTLQSMNNHLEAVLKEKRSLRQRLLKPMCQENLPIEAVYHRYMVHLLELAVTFIERLETHLETIRNIPHLAANLKKMNQALAKMDILVTETEELAENILKWRKQQNEVSSCIPKILAEESYLYKHDIIMPPLPFTSKVHVQTINAK | soluble
7 | MNIVEPLRDKDDIQAMKDYLSSWNEKYYMLFLLGINTGFRVGDILKLKVKDVQGWHIKVREQKTGKYKSIKMTRPLKNELREFVKDKELHEYLFQSRVGKNKALSYKTVYWFLKRAAEDLGIDNVGTHTMRKTFGYHYYKKYKNVADLMSLFNHSSPAVTLIYICVRQDELDTKMSNFSL | not soluble
8 | MAGAGMYGDCSLAATLSYGAVLEPYLHPKPGGVTPYASEGGKSFGDFVLHATLSSRLLAWACLKAWKNGPIGVIASVKERYLREVVPRFKGNIAYGTFMLMAPLAVAIALSKSSEPEELVTTARDTIYCCTGRRESLLHYKILRRLSPSHLGRYRGELPDVASGGERDIPPYPLLLKLNSWDMVHRELAKGYPITLEAYRHSLNRVKEGRSVEEALLEALLKVLAEHGDTLIFQKYGGRAFKMAREEARVAFHVSERWGVRHAITWLERLWRGREWNPGAALDIVAVASGLLLITISRDASS | not soluble
9 | MGSDKIHHHHHHMKDGQMLTEWPSHLPWLNQSQNDFTFPSDTYLLLYFWSMSCPNCHQFTDKVLQDIKDMNVKVIGVHVPYIEEEKSMEVVLTYALDRGLAIPIVLDQNYEIVTTCHVQGIPSFCLLSQYGQIITKTMGDVSWDKMLKKIAGL | not soluble
10 | GMMNTTQEGRQRLAERLADTVAQALEADLAKRERALLVVSGGSTPKPFFTSLAAKALPWARVDVTLADERWVTADDADSNARLVRETLLVGPAAEACFHPLTTDDDTPEAGVETVAERLESLPWPASAVILGMGGDGHTASLFPDSEQLATALETTSAAVVVHAPSVPQARITLSASRLADAGLHVLHITGNDKRRVLAEALAGDDVRQLPIRAFLSQPIATYWAP | soluble
11 | SKRVVFVTVGTTSFDALVKAVVSQNVKDELQKRGFTHLLIQMGRGIFFPTKCDGADGSLVVDYFTFSSSIADYIRSASLVISHAGSGSIFETLKLGKPLIVVVNEDLMDNHQCELAEALEERKHLYYTRPHSLHQTLTKMELGSLVQYTPGDGTPVARIIDRFLG | soluble
12 | MGSDKIHHHHHHMSIIDSQESTLYQQLAETFATAIHQGTLAPGSRLPSIRRVAGSHQVSVNTVLNAWRILEDRGLIEARPQSGYFVRGRLPSLTESKPHRAQVIVPGSEKLDLIDTVFAAQTHPDYTNISLACPQHTDFYPTEKISRIAASLLRRQPELIGRYALPPGSERLRREVARRAMDLGMTLTREDITITHGCMEALQLALRTVTQPGDCVGLETPTYFYLFPLLASLGLKTVEIPTDPQRGLSLDALELLLSENRLQAIIAMPNAQNPLGCSMTLADKKRLAKLVNDYQVPLIEDGLYSELQFTWPLSPTVKAFDREGWVIYCSSFTKTLAPDFRIGWMASGRFRAQVARLKAVSSMAESALLSETLAQFLESGGYDHHLRTLRRRYAAQMDEARGLIARHFPQGTRATQPQGGFVFWLELPGGVDGVELFHRLLQEKICVTPGELYTLSGRCKHALRLSCCYPFDERYTYALKRAGALACEMSGIGPGNEG | not soluble
13 | MLTITQALVDQIVAHARQDHPDEACGVVAGPEGSGRPERFIPMLNAARSPTFYEFDSGDLLKLYREMDDRDEEPVIIYHSHTATEAYPSRTDISYANEPGAHYVLVSTADADDAGPFQFRSFQIVAGEVTEEEVKVVEAYLEHHHHHH | soluble
14 | MSTTVEKIKAIEDEMARTQKNKATSFHLGQLKAKLAKLRRELLTSASSGSGGGAGIGFDVARTGVASVGFVGFPSVGKSTLLSKLTGTESEAAEYEFTTLVTVPGVIRYKGAKIQMLDLPGIIDGAKDGRGRGKQVIAVARTCNLLFIILDVNKPLHHKQIIEKELEGVGIRLNKTPPDILIKKKEKGGISITNTVPLTHLGNDEIRAVMSEYRINSAEIAFRCDATVDDLIDVLEASSRRYMPAIYVLNKIDSLSIEELELLYRIPNAVPISSGQDWNLDELLQVMWDRLNLVRIYTKPKGQIPDFTDPVVLRSDRCSVKDFCNQIHKSLVDDFRNALVYGSSVKHQPQYVGLSHILEDEDVVTILKK | soluble
15 | MGSDKIHHHHHHMRVLVVGLGNMGQSHALAHHAADGVEIIGLVNRSSRDLPGALQGYPMIQTVEEGLALSPDLVVIATYSDTHADLACQAMRAGAHVFVEKPLATTVADAKGVVETARETGQKLVVGYILRHHPSWMRLIEEARALGGPYVFRMNLNQQSTGAEWATHKALMQTTSPIVDCGVHYVDVWCQITDARPVAVHGMGLRLSDEIAPEMYNYGQFQVFFDDGSVGWYEAGWGPMMSEVAFFVKDVISPNGAVSITEADKAGSADIDGHTKVGGVLVHRPGDDQLIEFEGEPGHQELCDAEQAFMRRAIAEDLDLSRHMEDAVRSLAICLAADESIRTGQRVTL | not soluble
16 | MSLGFSRQAFYKRHLNDLARHEEDVLCSSIIQYCWHLRQAEHLPQAGFRELMVLCQQYFGPKFTLGRDRFCALLRRHGMMLRKRSVRPRTTNSRHRLYKYEDLLNTEPKFVPQRPGELLVADITYVAYQDGFAYLSLLTDAYSRCIVGYCLHPTLEVEGCLNALHQAFAFYDQHQIDTTNMIHHSDRGIQYAGKSYTDLLHGRGWRISMTQTGDPLHNALAERMNNTLKNSWHISSSKQSFDQALLSVDRAVRMYNEARPHQALRAKTPMQVITPESEGHHHHHH | soluble
17 | MTEFELPPKYITAANDLRSDTFTTPTAEMMEAALEASIGDAVYGEDVDTVRLEQTVARMAGKEAGLFCVSGTLSNQIAIRTHLMQPPYSILCDYRAHVYTHEAAGLAILSQAMVVPVVPSNGDYLTLEDIKSHYVPDDGDIHGAPTRLISLENTLHGIVYPLEELVRIKAWCMENGLKLHCDGARIWNAAAQSGVPLKQYGEIFDSISICLSKSMGAPIGSVLVGNLKFVKKATHFRKQQGGGIRQSGMMARIALVNINNDWKSQLLYSHSLAHELAEYCEAKGIPLESPADTNFVFINLKAARMDPDVLVKKGLKYNVKLMGGRVSFHYQVTRDTLEKVKLAISEAFDYAKEHPFDCNGPTQIYRSESTEVDVDGNAIREIKTYKY | soluble
18 | MSLKDRYILAFETSCDETSVAVLKNDDELLSNVIASQIESHKRFGGVVPEVASRHHVEVITACIEEALAEAGITEEDVTAVAVTYGPGLVGALLVGLSAAKAFAWAHGLPLIPVNHMAGHLMAAQSVEPLEFPLLALLVSGGHTELVYVSEAGDYKIVGETRDDAVGEAYDKVGRVMGLTYPAGREIDELAHQGQDIYDFPRAMIKEDNLEFSFSGLKSAFINLHHNAEQKGESLSTEDLCASFQAAVMDILMAKTKKALEKYPVKTLVVAGGVAANKGLRERLATEITDVNVIIPPLRLCGDNAGMIAYASVSEWNKENFANLDLNAKPSLAFDTMEEGHHHHHH | soluble
19 | MSLRAKVTTKKYSVCEAPKVSEEELLSALVDRHKGKVQFIDFWATWCGGCRRTIKEYEPIKKELGENVAFVYLTGPSSIEKTWKILIQDIVGEHYWLNEKQWGYLWKHFQMKGLPMYLVIDKQGNIVKRFTHVTRKELEELLKQEINKEGHHHHHH | soluble
20 | VLSARCHIRHIGSPGKDARCAHLSATLRPGIGISPTNVGNATVLADGTPAKPIQGAETMQRARHTGSCFSANARGPAISSGNPSRAGCGVPSSTTTPSSTPQAIRLLACTDSDALTVTRTAR | not soluble
21 | MRRFTAFVLGLCLSLPVLAEQVQRFGDLDVHYNVFNSSFLQPNVASAVGLVRSKAQGVINVVPMEKGKPVEAAVTGSAKDLTGKVIPLEFRRVSEEGAIYNLAQFPISQRETLVFTIKVEAKGEPAQTFSFNKEIFPDE | not soluble
